{"source": "IntAct's records for PubMed 20861839", "parents": {"B1": {"name": "Symplekin (Homo sapiens), Q92797 (parent)", "chain": "MASGSGDSVTRRSVASQFFTQEEGPGIDGMTTSERVVDLLNQAALITNDSKITVLKQVQELIINKDPTLLDNFLDEIIAFQADKSIEVRKFVIGFIEEACKRDIELLLKLIANLNMLLRDENVNVVKKAILTMTQLYKVALQWMVKSRVISELQEACWDMVSAMAGDIILLLDSDNDGIRTHAIKFVEGLIVTLSPRMADSEIPRRQEHDISLDRIPRDHPYIQYNVLWEEGKAALEQLLKFMVHPAISSINLTTALGSLANIARQRPMFMSEVIQAYETLHANLPPTLAKSQVSSVRKNLKLHLLSVLKHPASLEFQAQITTLLVDLGTPQAEIARNMPSSKDTRKRPRDDSDSTLKKMKLEPNLGEDDEDKDLEPGPSGTSKASAQISGQSDTDITAEFLQPLLTPDNVANLVLISMVYLPEAMPASFQAIYTPVESAGTEAQIKHLARLMATQMTAAGLGPGVEQTKQCKEEPKEEKVVKTESVLIKRRLSAQGQAISVVGSLSSMSPLEEEAPQAKRRPEPIIPVTQPRLAGAGGRKKIFRLSDVLKPLTDAQVEAMKLGAVKRILRAEKAVACSGAAQVRIKILASLVTQFNSGLKAEVLSFILEDVRARLDLAFAWLYQEYNAYLAAGASGSLDKYEDCLIRLLSGLQEKPDQKDGIFTKVVLEAPLITESALEVVRKYCEDESRTYLGMSTLRDLIFKRPSRQFQYLHVLLDLSSHEKDKVRSQALLFIKRMYEKEQLREYVEKFALNYLQLLVHPNPPSVLFGADKDTEVAAPWTEETVKQCLYLYLALLPQNHKLIHELAAVYTEAIADIKRTVLRVIEQPIRGMGMNSPELLLLVENCPKGAETLVTRCLHSLTDKVPPSPELVKRVRDLYHKRLPDVRFLIPVLNGLEKKEVIQALPKLIKLNPIVVKEVFNRLLGTQHGEGNSALSPLNPGELLIALHNIDSVKCDMKSIIKATNLCFAERNVYTSEVLAVVMQQLMEQSPLPMLLMRTVIQSLTMYPRLGGFVMNILSRLIMKQVWKYPKVWEGFIKCCQRTKPQSFQVILQLPPQQLGAVFDKCPELREPLLAHVRSFTPHQQAHIPNSIMTILEASGKQEPEAKEAPAGPLEEDDLEPLTLAPAPAPRPPQDLIGLRLAQEKALKRQLEEEQKLKPGGVGAPSSSSPSPSPSARPGPPPSEEAMDFREEGPECETPGIFISMDDDSGLTEAALLDSSLEGPLPKETAAGGLTLKEERSPQTLAPVGEDAMKTPSPAAEDAREPEAKGNS"}, "B2": {"name": "RNA polymerase II subunit A C-terminal domain phosphatase SSU72 (Homo sapiens), Q9NP77-1 (parent)", "chain": "MPSSPLRVAVVCSSNQNRSMEAHNILSKRGFSVRSFGTGTHVKLPGPAPDKPNVYDFKTTYDQMYNDLLRKDKELYTQNGILHMLDRNKRIKPRPERFQNCKDLFDLILTCEERVYDQVVEDLNSREQETCQPVHVVNVDIQDNHEEATLGAFLICELCQCIQHTEDMENEIDELLQEFEEKSGRTFLHTVCFY", "partner": "B1 chain"}}}
{"variants_of": "B1", "settings": "with SSU72, Q9NP77-1"}
{"variant": "K185A", "effect of a mutation on the interaction": "disrupting interaction"}
{"variants_of": "B2", "settings": "with sympk_human SYMPK"}
{"variant": "T190A;V191A;F193A", "effect of a mutation on the interaction": "disrupting interaction"}
